Test results: patent US20030224397A1 (Genentech, published 2003)
Read-outs that look alike come from different tables or passages of the source.

T1: short isoform of VEGF (8-109) (UniProt P15692 214-315)
T1 construct: range 8-109; Immobilized by amine coupling for SPR; in solution for the fluorescence assay; also called vascular endothelial growth factor
T1 sequence (looked up): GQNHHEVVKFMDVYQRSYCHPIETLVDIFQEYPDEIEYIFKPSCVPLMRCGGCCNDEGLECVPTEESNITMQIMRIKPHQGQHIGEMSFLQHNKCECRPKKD


How the values were obtained:
[1] = biological target: T1, short isoform of VEGF (8-109); test: fluorescence-based association assay in solution, 25 mM Tris pH 7.2, 37 C
Protocol: (§1) In the experiments described here, the fluorescence emission intensity (λexcitation=295 nm; λₑₘᵢₛₛᵢₒₙ=340 nm, 16 nm bandpass) was measured using an 8000-series SLM-Aminco spectrophotometer (THERMOSPECTRONIC®) as VEGF was added to a stirred cuvette containing approximately 10 nM Fab in 25 mM Tris, pH 7.2, held at 37° C.
(§2) Residues are numbered according the Kabat system (Kabat et al. Sequences of Proteins of Immunological Interest, 5th Edition., National Institute of Health, Bethesda, Md. (1991)). k₁ determined by the fluorescence-based assay (±standard deviation of three experiments). k₋₁ determined by surface plasmon resonance (±standard deviation of 12 experiments). k₁ and k₋₁ (0 M NaCl) experiments were performed in 25 mM Tris, pH 7.2, at 37° C. k₋₁ (0.15 M NaCl) experiments performed in 25 mM Tris, 150 mM NaCl, at 25° C.

[2] = biological target: T1, short isoform of VEGF (8-109); test: calculated from k-1 and k1, 0 M NaCl data
[3] = biological target: T1, short isoform of VEGF (8-109); test: fluorescence-based association assay in solution, 25 mM Tris pH 7.2, 37 C; remark: listed apart in the source
Protocol: as §1

[4] = biological target: T1, short isoform of VEGF (8-109); test: SPR (BIAcore), VEGF immobilized, 25 mM Tris, 150 mM NaCl, 25 C
[5] = biological target: T1, short isoform of VEGF (8-109); test: SPR (BIAcore), VEGF immobilized, 25 mM Tris pH 7.2, 0 M NaCl, 37 C
Protocol: (§3) Dissociation rates were measured by surface plasmon resonance on a BIACORE-2000® instrument (BIAcore, Inc.) as described previously (Muller et al. Structure 6(9): 1153-67 (1998)). VEGF was immobilized by amine coupling to a B1 chip at approximately 10 resonance-response units. Fab binding was measured at 1 μM, 500 nM, 250 nM, 125 nM, 62.5 nM, and 31.3 nM. Dissociation was calculated assuming a one-to-one binding model. All experiments were performed at 37° C. in phosphate buffered saline solution, pH 7.2, containing 0.05% Tween-20, 0.01% NaN3 and at a flow rate of 20 μL min⁻¹.
as §2

[6] = biological target: T1, short isoform of VEGF (8-109); test: fluorescence-based association assay at varied salt concentration
Protocol: as §1

[7] = biological target: T1, short isoform of VEGF (8-109); test: fluorescence-based association assay in solution, 25 mM Tris pH 7.2, 37 C; remark: listed apart in the source
Protocol: as §1
as §2, with “three experiments, wild-type only).” for “three experiments).”

[8] = biological target: T1, short isoform of VEGF (8-109); test: calculated from k-1 and k1, 0 M NaCl data; remark: listed apart in the source
[9] = biological target: T1, short isoform of VEGF (8-109); test: SPR (BIAcore), VEGF immobilized, 25 mM Tris pH 7.2, 0 M NaCl, 37 C; remark: listed apart in the source
Protocol: as §3
as §2, with “three experiments, wild-type only).” for “three experiments).”

[10] = biological target: T1, short isoform of VEGF (8-109); test: SPR (BIAcore), VEGF immobilized, 25 mM Tris, 150 mM NaCl, 25 C; remark: listed apart in the source

kon [1] [M⁻¹ s⁻¹]	kon [7] [M⁻¹ s⁻¹]	Kd [8] [nM]	koff [9] [s⁻¹]	Binder	also measured
1.3e+06				Fab Y0101 variant, light chain S26K, D28K, S30K (Fab, V domains shown, Fab of Y0101 with several light chain substitutions) VH: EVQLVESGGGLVQPGGSLRLSCAASGYTFTNYGMNWVRQAPGKGLEWVGWINTYTGEPTYAADFKRRFTFSLDTSKSTAYLQMNSLRAEDTAVYYCAKYPHYYGSSHWYFDVWGQGTLVTVSS VL: DIQLTQSPSSLSASVGDRVTITCSAKQKIKNYLNWYQQKPGKAPKVLIYFTSSLHSGVPSRFSGSGSGTDFTLTISSLQPEDFATYYCQQYSTVPWTFGQGTKVEIKR	
610000				Fab Y0101 variant, light chain S26K, Q27K, D28N, S30T (Fab, V domains shown, Fab of Y0101 with several light chain substitutions) VH: EVQLVESGGGLVQPGGSLRLSCAASGYTFTNYGMNWVRQAPGKGLEWVGWINTYTGEPTYAADFKRRFTFSLDTSKSTAYLQMNSLRAEDTAVYYCAKYPHYYGSSHWYFDVWGQGTLVTVSS VL: DIQLTQSPSSLSASVGDRVTITCSAKKNITNYLNWYQQKPGKAPKVLIYFTSSLHSGVPSRFSGSGSGTDFTLTISSLQPEDFATYYCQQYSTVPWTFGQGTKVEIKR	
	710000			Fab Y0101 variant, light chain Y32R (Fab, V domains shown, Fab of Y0101 with one light chain substitution) VH: EVQLVESGGGLVQPGGSLRLSCAASGYTFTNYGMNWVRQAPGKGLEWVGWINTYTGEPTYAADFKRRFTFSLDTSKSTAYLQMNSLRAEDTAVYYCAKYPHYYGSSHWYFDVWGQGTLVTVSS VL: DIQLTQSPSSLSASVGDRVTITCSASQDISNRLNWYQQKPGKAPKVLIYFTSSLHSGVPSRFSGSGSGTDFTLTISSLQPEDFATYYCQQYSTVPWTFGQGTKVEIKR	
1.3e+06				Fab Y0101 variant, light chain S52K, S53K, L54T (Fab, V domains shown, Fab of Y0101 with several light chain substitutions) VH: EVQLVESGGGLVQPGGSLRLSCAASGYTFTNYGMNWVRQAPGKGLEWVGWINTYTGEPTYAADFKRRFTFSLDTSKSTAYLQMNSLRAEDTAVYYCAKYPHYYGSSHWYFDVWGQGTLVTVSS VL: DIQLTQSPSSLSASVGDRVTITCSASQDISNYLNWYQQKPGKAPKVLIYFTKKTHSGVPSRFSGSGSGTDFTLTISSLQPEDFATYYCQQYSTVPWTFGQGTKVEIKR	
	440000			Fab Y0101 variant, light chain L54K (Fab, V domains shown, Fab of Y0101 with one light chain substitution) VH: EVQLVESGGGLVQPGGSLRLSCAASGYTFTNYGMNWVRQAPGKGLEWVGWINTYTGEPTYAADFKRRFTFSLDTSKSTAYLQMNSLRAEDTAVYYCAKYPHYYGSSHWYFDVWGQGTLVTVSS VL: DIQLTQSPSSLSASVGDRVTITCSASQDISNYLNWYQQKPGKAPKVLIYFTSSKHSGVPSRFSGSGSGTDFTLTISSLQPEDFATYYCQQYSTVPWTFGQGTKVEIKR	

Continued, binder first:

Binder	kon [1] [M⁻¹ s⁻¹]	kon [7] [M⁻¹ s⁻¹]	Kd [8] [nM]	koff [9] [s⁻¹]	also measured
34-TKKT (VH-(T28D, S100aR)+VL-(S26T, Q27K, D28K, S30T)) (Fab, V domains shown, Fab of Y0101 with both altered chains) VH: EVQLVESGGGLVQPGGSLRLSCAASGYDFTNYGMNWVRQAPGKGLEWVGWINTYTGEPTYAADFKRRFTFSLDTSKSTAYLQMNSLRAEDTAVYYCAKYPHYYGRSHWYFDVWGQGTLVTVSS VL: DIQLTQSPSSLSASVGDRVTITCSATKKITNYLNWYQQKPGKAPKVLIYFTSSLHSGVPSRFSGSGSGTDFTLTISSLQPEDFATYYCQQYSTVPWTFGQGTKVEIKR	3.3e+06				Kd [2]: 0.08 nM; fold higher association rate than Y0101 [3]: 6 fold; koff [4]: 2e-05 s⁻¹; koff [5]: 0.00026 s⁻¹; fold difference in association rate against Y0101 in 150 mM NaCl [6]: < 2 fold
Fab Y0101 variant, heavy chain Y99R (Fab, name in Kabat numbering, V domains shown, Fab of Y0101 with one heavy chain substitution) VH: EVQLVESGGGLVQPGGSLRLSCAASGYTFTNYGMNWVRQAPGKGLEWVGWINTYTGEPTYAADFKRRFTFSLDTSKSTAYLQMNSLRAEDTAVYYCAKYPHYRGSSHWYFDVWGQGTLVTVSS VL: DIQLTQSPSSLSASVGDRVTITCSASQDISNYLNWYQQKPGKAPKVLIYFTSSLHSGVPSRFSGSGSGTDFTLTISSLQPEDFATYYCQQYSTVPWTFGQGTKVEIKR		600000	0.2	0.00014	koff [10]: 0.00016 s⁻¹
Fab Y0101 variant, heavy chain S100aR (Fab, name in Kabat numbering, V domains shown, Fab of Y0101 with one heavy chain substitution) VH: EVQLVESGGGLVQPGGSLRLSCAASGYTFTNYGMNWVRQAPGKGLEWVGWINTYTGEPTYAADFKRRFTFSLDTSKSTAYLQMNSLRAEDTAVYYCAKYPHYYGRSHWYFDVWGQGTLVTVSS VL: DIQLTQSPSSLSASVGDRVTITCSASQDISNYLNWYQQKPGKAPKVLIYFTSSLHSGVPSRFSGSGSGTDFTLTISSLQPEDFATYYCQQYSTVPWTFGQGTKVEIKR		870000	0.3	0.00024	koff [10]: 7e-05 s⁻¹
Fab Y0101 variant, heavy chain T28K (Fab, name in Kabat numbering, V domains shown, Fab of Y0101 with one heavy chain substitution) VH: EVQLVESGGGLVQPGGSLRLSCAASGYKFTNYGMNWVRQAPGKGLEWVGWINTYTGEPTYAADFKRRFTFSLDTSKSTAYLQMNSLRAEDTAVYYCAKYPHYYGSSHWYFDVWGQGTLVTVSS VL: DIQLTQSPSSLSASVGDRVTITCSASQDISNYLNWYQQKPGKAPKVLIYFTSSLHSGVPSRFSGSGSGTDFTLTISSLQPEDFATYYCQQYSTVPWTFGQGTKVEIKR		360000			
Fab Y0101 variant, heavy chain E56K (Fab, name in Kabat numbering, V domains shown, Fab of Y0101 with one heavy chain substitution) VH: EVQLVESGGGLVQPGGSLRLSCAASGYTFTNYGMNWVRQAPGKGLEWVGWINTYTGKPTYAADFKRRFTFSLDTSKSTAYLQMNSLRAEDTAVYYCAKYPHYYGSSHWYFDVWGQGTLVTVSS VL: DIQLTQSPSSLSASVGDRVTITCSASQDISNYLNWYQQKPGKAPKVLIYFTSSLHSGVPSRFSGSGSGTDFTLTISSLQPEDFATYYCQQYSTVPWTFGQGTKVEIKR		480000	0.9	0.00044	
Fab Y0101 variant, heavy chain T28D, S100aR (Fab, V domains shown, Fab; also called altered heavy chain T28D-S100aR) VH: EVQLVESGGGLVQPGGSLRLSCAASGYDFTNYGMNWVRQAPGKGLEWVGWINTYTGEPTYAADFKRRFTFSLDTSKSTAYLQMNSLRAEDTAVYYCAKYPHYYGRSHWYFDVWGQGTLVTVSS VL: DIQLTQSPSSLSASVGDRVTITCSASQDISNYLNWYQQKPGKAPKVLIYFTSSLHSGVPSRFSGSGSGTDFTLTISSLQPEDFATYYCQQYSTVPWTFGQGTKVEIKR	1.4e+06				koff [4]: 0.00011 s⁻¹
Fab Y0101 variant, heavy chain Y99K (Fab, name in Kabat numbering, V domains shown, Fab of Y0101 with one heavy chain substitution) VH: EVQLVESGGGLVQPGGSLRLSCAASGYTFTNYGMNWVRQAPGKGLEWVGWINTYTGEPTYAADFKRRFTFSLDTSKSTAYLQMNSLRAEDTAVYYCAKYPHYKGSSHWYFDVWGQGTLVTVSS VL: DIQLTQSPSSLSASVGDRVTITCSASQDISNYLNWYQQKPGKAPKVLIYFTSSLHSGVPSRFSGSGSGTDFTLTISSLQPEDFATYYCQQYSTVPWTFGQGTKVEIKR		380000	0.4	0.00015	koff [10]: 0.00014 s⁻¹
